From PMC4908242, “Functional Characterization of a Small-Molecule Inhibitor of the DKK1-LRP6 Interaction” (ISRN Molecular Biology, 2012)

Columns and labels:
[1] = target: T1, Full-length human LRP6-Fc tagged (R&D Systems) (human, UniProt O75581 20-1613); test: SPR; Biacore T100. LRP6-Fc immobilised by amine coupling on a CM3 chip (3000 RU); DKK1 3-54 nM injected for 180 sec; HBS-EP+ pH 7.4, 25°C; apparent KD calculated as kd/ka; settings: both partners purified
[2] = target: T1, Full-length human LRP6-Fc tagged (R&D …); test: SPR; Biacore T100. LRP6-Fc (0.5 μg/mL) captured on Protein A that was amine-coupled to a CM3 chip; DKK1 3-54 nM injected; HBS-EP+ pH 7.4, 25°C; apparent KD; settings: both partners purified

T1 sequence (O75581 20-1613): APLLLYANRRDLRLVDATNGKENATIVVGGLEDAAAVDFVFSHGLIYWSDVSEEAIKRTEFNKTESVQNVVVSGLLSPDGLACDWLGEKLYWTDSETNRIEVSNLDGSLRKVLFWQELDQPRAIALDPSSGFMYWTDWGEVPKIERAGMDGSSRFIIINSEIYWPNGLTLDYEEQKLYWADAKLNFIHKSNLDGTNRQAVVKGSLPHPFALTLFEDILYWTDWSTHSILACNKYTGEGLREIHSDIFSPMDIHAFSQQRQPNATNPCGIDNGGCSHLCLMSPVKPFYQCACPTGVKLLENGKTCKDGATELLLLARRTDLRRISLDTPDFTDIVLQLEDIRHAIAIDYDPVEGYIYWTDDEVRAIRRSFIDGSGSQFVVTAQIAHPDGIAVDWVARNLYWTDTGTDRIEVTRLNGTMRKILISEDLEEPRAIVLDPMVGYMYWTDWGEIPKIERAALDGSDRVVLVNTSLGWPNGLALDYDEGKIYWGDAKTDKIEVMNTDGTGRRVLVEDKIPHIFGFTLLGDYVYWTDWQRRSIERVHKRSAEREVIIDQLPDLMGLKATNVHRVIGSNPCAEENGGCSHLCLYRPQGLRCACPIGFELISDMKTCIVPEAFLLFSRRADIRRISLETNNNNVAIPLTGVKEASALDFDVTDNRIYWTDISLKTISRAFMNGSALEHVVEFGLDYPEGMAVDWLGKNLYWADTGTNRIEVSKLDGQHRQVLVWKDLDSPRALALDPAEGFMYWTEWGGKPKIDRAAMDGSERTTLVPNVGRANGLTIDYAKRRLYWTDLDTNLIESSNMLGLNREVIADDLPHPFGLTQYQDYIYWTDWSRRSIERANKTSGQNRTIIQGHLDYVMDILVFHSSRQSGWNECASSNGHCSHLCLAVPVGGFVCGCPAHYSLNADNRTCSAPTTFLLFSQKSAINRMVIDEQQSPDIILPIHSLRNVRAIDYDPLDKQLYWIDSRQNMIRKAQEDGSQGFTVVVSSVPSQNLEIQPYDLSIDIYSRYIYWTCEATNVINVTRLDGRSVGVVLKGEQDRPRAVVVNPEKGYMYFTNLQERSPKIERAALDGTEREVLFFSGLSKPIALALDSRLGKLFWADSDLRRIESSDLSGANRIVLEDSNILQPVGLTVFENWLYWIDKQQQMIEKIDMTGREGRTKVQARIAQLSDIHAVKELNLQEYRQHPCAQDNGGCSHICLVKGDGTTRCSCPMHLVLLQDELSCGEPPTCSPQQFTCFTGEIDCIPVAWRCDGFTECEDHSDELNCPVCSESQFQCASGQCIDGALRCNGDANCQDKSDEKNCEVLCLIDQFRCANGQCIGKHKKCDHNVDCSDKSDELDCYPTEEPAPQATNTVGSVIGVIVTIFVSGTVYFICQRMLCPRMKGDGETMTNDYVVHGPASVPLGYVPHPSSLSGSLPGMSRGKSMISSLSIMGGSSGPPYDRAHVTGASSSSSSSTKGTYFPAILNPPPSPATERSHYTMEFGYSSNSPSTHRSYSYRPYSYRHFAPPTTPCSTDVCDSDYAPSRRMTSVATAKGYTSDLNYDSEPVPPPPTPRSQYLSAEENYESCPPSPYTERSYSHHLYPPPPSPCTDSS

Kd [1]: 349 pM
koff [1]: 0.00183 s⁻¹
kon [1]: 5.26e+06 M⁻¹ s⁻¹
Kd [2]: 840 pM
B1: Commercial purified recombinant human DKK1 (ligand, UniProt O94907 32-266, looked up)
chain: TLNSVLNSNAIKNLPPPLGGAAGHPGSAVSAAPGILYPGGNKYQTIDNYQPYPCAEDEECGTDEYCASPTRGGDAGVQICLACRKRRKRCMRHAMCCPGNYCKNGICVSSDQNHFRGEIEETITESFGNDHSTLDGYSRRTTLSSKMYHTKGQEGSVCLRSSDCASGLCCARHFWSKICKPVLKEGQVCTKHRRKGSHGLEIFQRCYCGEGLSCRIQKDHHQASNSSRLHTCQRH
notes: Dickkopf 1 (DKK1), human, commercial recombinant protein; Neither catalogue number nor construct limits are printed; also called Dickkopf 1; commercial recombinant DKK1; source: bought: R&D Systems, purified recombinant
